{"source": "paper PMC6764996", "key": {"[1]": {"target": "full-length human DNA polymerase θ (Polθ) (human) (UniProt O75417)", "experiment": "negative staining electron microscopy (single particles); 200 nM protein pre-incubated with 2 μM 26 nt ssDNA; 25 mM Tris-HCl pH 8.8, 1 mM DTT, 10 mM MgCl2, 2 mM ATP; 37 °C, 30 min; 2% uranyl acetate"}, "[2]": {"target": "full-length human DNA polymerase θ (Polθ) (human) (UniProt O75417)", "experiment": "negative staining electron microscopy (single particles); 200 nM protein without ssDNA; 25 mM Tris-HCl pH 8.8, 1 mM DTT, 10 mM MgCl2, 2 mM ATP; 37 °C, 30 min; applied to lacey carbon grids, 2% uranyl acetate"}, "[3]": {"target": "full-length human DNA polymerase θ (Polθ) (human) (UniProt O75417)", "experiment": "scanning force microscopy (volume measurements); 10 nM protein with 20 nM 26 nt ssDNA; 25 mM Tris-HCl pH 8.8, 30 mM NaCl, 10 mM MgCl2, 2 mM ATP, 0.01% NP-40, 1 mM DTT; 37 °C, 30 min; deposited on mica; volumes normalised to the monomer's volume"}}, "data": [{"substance": "full-length human DNA polymerase θ (Polθ), O75417 1-2590", "values": [{"measurement": "fold increase in large > 1000 Å multimers with ssDNA against without ssDNA", "setting": "[1]", "result": 9, "unit": "fold"}, {"measurement": "percent of Polθ as large (> 1000 Å) multimers (without ssDNA)", "setting": "[2]", "result": 3, "unit": "%"}, {"measurement": "percent of Polθ as tetramers or larger (with ssDNA)", "setting": "[3]", "result": 62, "unit": "%"}]}]}
